# Article PMC2847587
# How the values were obtained:
# Test in all cases: immunodepletion
# [1] = molecular target: MHF1 (FANCM-associated Histone Fold protein 1) (human (endogenous in HeLa)) (UniProt Q8N2Z9)
# [2] = molecular target: FAAP24 (human (endogenous in HeLa)) (UniProt Q9BTP7)
# [3] = molecular target: MHF2 (FANCM-associated Histone Fold protein 2) (human (endogenous in HeLa)) (UniProt A8MT69); conditions: remark: other sources report otherwise
# [4] = molecular target: FANCA (human (endogenous in HeLa)) (UniProt O15360)
# Sequence of FANCA (human (endogenous in HeLa)) (O15360 whole entry): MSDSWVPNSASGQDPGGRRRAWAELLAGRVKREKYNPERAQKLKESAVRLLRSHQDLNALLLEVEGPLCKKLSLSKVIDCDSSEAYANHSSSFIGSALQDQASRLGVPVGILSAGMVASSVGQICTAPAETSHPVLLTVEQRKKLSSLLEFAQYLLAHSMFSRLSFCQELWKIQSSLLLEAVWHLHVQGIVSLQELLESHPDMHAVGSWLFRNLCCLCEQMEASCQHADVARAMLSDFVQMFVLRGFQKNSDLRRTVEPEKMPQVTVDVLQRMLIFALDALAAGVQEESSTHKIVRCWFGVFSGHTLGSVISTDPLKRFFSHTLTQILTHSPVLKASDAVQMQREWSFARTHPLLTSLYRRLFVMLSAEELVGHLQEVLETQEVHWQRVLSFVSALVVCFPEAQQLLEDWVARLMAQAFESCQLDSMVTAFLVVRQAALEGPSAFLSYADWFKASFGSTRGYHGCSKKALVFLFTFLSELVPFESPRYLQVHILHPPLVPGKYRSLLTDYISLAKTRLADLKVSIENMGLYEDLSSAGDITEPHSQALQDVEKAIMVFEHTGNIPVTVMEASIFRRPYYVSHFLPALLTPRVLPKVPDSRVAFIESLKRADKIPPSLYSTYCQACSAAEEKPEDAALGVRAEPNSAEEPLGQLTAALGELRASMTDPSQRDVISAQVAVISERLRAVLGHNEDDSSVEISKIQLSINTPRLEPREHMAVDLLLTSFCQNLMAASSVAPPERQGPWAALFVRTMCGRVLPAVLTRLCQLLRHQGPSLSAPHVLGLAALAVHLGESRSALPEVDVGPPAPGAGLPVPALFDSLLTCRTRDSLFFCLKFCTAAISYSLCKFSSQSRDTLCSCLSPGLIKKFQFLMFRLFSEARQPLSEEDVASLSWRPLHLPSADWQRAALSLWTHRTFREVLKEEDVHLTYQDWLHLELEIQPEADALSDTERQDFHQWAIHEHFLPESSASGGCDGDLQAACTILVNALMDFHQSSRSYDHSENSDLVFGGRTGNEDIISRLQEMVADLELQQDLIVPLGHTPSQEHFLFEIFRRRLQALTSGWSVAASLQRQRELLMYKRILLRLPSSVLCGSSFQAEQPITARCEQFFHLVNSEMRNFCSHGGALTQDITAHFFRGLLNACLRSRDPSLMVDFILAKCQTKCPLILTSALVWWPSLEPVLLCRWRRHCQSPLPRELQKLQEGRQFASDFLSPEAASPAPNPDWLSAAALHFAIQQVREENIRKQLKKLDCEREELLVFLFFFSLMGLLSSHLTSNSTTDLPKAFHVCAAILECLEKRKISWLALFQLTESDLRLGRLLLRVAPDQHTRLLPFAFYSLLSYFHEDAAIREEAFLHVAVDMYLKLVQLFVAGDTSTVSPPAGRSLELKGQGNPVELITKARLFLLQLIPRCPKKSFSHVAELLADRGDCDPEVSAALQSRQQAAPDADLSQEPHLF
# Sequence of MHF2 (FANCM-associated Histone Fold protein 2) (human (endogenous in HeLa)) (A8MT69 whole entry): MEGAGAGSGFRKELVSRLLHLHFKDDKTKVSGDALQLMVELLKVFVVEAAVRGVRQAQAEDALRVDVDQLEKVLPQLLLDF
# Sequence of MHF1 (FANCM-associated Histone Fold protein 1) (human (endogenous in HeLa)) (Q8N2Z9 whole entry): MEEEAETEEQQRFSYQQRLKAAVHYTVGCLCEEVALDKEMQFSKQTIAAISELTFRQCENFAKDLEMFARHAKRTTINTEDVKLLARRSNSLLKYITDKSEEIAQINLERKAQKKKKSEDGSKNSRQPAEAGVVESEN
# Sequence of FAAP24 (human (endogenous in HeLa)) (Q9BTP7 whole entry): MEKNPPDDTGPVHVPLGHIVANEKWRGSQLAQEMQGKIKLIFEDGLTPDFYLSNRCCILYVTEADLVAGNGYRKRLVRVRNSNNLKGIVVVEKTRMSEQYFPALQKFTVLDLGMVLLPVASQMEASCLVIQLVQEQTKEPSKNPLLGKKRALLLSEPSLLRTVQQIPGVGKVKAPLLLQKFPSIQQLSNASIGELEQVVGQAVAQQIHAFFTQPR
substance,measurement,setting,value
"FANCM, Q8IYD8 1-2048",percent co-depleted,[1],85%
same,percent co-depleted,[2],70%
same,percent co-depleted,[3],85%
same,percent co-depleted,[4],< 30%
